Assay [1] deals with Aβ^40Arc fibrils (pre-formed fibrils of Aβ1–40 Glu22Gly). Nature of the assay: SPR; co-injection: 2 µM Aβ injected for 30 s over immobilised pre-formed fibrils at 20 µl/min in PBS at 25°C, at once followed by 0–400 nM Aβ; the concentration that gives a plateau (critical concentration) is taken as the binding constant.
For assay [2], the target named is Aβ^40WT fibrils (pre-formed fibrils of wild type Aβ1–40) (UniProt P05067). Described as above.

For “Aβ1–40 Glu22Gly (Arctic variant), monomeric (peptide)”, the equilibrium dissociation constant (Kd) stood at 100 nM in assay [1] and 50 nM in assay [2].

What is called Kd is the free concentration of one partner at which half of the binding sites on the other are occupied at equilibrium, for simple one-to-one binding. High values mean a looser complex, low ones a tighter complex.

The values above are taken from PMC3182996.
